Laboratory results: paper doi:10.1101/2022.11.05.515280
Where two headings read alike, the source gives them in different places. One block for each molecule: values may come before it.

Columns and labels:
[1] = molecular target: human Mcl-1 ΔPESTΔTM (human); experiment: NMR titration
[2] = molecular target: human Mcl-1 ΔPESTΔTM (human); experiment: NMR titration; remark: listed apart in the source
[3] = molecular target: human Mcl-1 ΔPESTΔTM (human); experiment: SEC + other: SAXS

relative population of Mcl-1 bound, in the mix of three peptides [1]: 55%
Molecule: Mule BH3 peptide (MuleBH3)

Kd [2]: 7.9 µM | fold weaker relative affinity than TCTPBH3D16I and MuleBH3 [2]: > 10 fold
Molecule: DEMFSDIYKIREIADGLCLEVE [TCTP BH3-like peptide (TCTPBH3)]

relative population of Mcl-1 bound, in the mix of three peptides [2]: 45%
Molecule: DEMFSIIYKIREIADGLCLEVE [TCTP BH3-like peptide D16I mutant (TCTP_(BH3D16I))]

stoichiometry N [3]: 1
B1: full length human TCTP (Translationally Controlled Tumour Protein) (natural protein)
chain: MIIYRDLISHDEMFSDIYKIREIADGLCLEVEGKMVSRTEGNIDDSLIGGNASAEGPEGEGTESTVITGVDIVMNHHLQETSFTKEAYKKYIKDYMKSIKGKLEEQRPERVKPFMTGAAEQIKHILANFKNYQFFIGENMNPDGMVALLDYREDGVTPYMIFFKDGLEMEKC
